Results on four molecules are retold here after paper PMC7360063, “Brassinosteroids regulate root meristem development by mediating BIN2-UPB1 module in Arabidopsis” (PLoS Genetics, 2020).

T1: MBP-BIN2 (Arabidopsis, UniProt Q39011 1-380)
T1 construct: BIN2, Arabidopsis, At4g18710; source: E. coli, purified
T1 sequence (looked up): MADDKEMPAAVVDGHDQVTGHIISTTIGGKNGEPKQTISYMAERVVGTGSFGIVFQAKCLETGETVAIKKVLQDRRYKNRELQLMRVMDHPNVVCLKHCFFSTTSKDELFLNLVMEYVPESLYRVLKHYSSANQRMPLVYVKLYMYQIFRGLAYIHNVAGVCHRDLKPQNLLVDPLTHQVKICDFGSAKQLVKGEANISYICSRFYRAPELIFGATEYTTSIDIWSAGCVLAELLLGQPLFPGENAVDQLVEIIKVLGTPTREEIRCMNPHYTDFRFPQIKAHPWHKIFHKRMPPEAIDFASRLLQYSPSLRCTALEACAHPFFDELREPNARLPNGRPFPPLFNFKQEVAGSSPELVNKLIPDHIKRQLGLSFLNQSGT

B1: His-SUMO-UPB1 (natural protein, Arabidopsis, UniProt O22901 1-102, looked up)
chain: MGVTLEGQRKESIWVLMRRQRARRALVKKIMIRPRKSVEASRRPCRAIHRRVKTLKELVPNTKTSEGLDGLFRQTADYILALEMKVKVMQTMVQVLTETNCV
notes: UPB1, Arabidopsis, At2g47270; The phosphorylation methods speak of a 6x His tag; source: E. coli, purified
B2: GST-PRE3 (natural protein, Arabidopsis, UniProt Q9CA64 1-93, looked up)
chain: MSGRRSRSRQSSGTSRISEDQINDLIIKLQQLLPELRDSRRSDKVSAARVLQDTCNYIRNLHREVDDLSERLSELLANSDTAQAALIRSLLTQ
notes: PRE3, Arabidopsis, At1g74500; source: E. coli, purified
B3: GST-PRE2 (natural protein, Arabidopsis, UniProt Q9LXG5 1-94, looked up)
chain: MSSSRRSRQASSSSRISDDQITDLISKLRQSIPEIRQNRRSNTVSASKVLQETCNYIRNLNKEADDLSDRLTQLLESIDPNSPQAAVIRSLING
notes: PRE2, Arabidopsis, At5g15160; source: E. coli, purified

In one experiment the target is PRE2 (UniProt Q9LXG5). In words: anti-HA co-IP, anti-GFP blot. The following applies: reference: wild type UPB1; sites S37,S41.
The next experiment concerns the target PRE3 (UniProt Q9CA64). In words: anti-HA co-IP, anti-GFP blot. The following applies: reference: wild type UPB1; sites S37,S41.
In the next experiment the target is T1, MBP-BIN2. In words: pull-down; His pull-down: about 30 ug His-SUMO-UPB1 with 30 ug MBP-BIN2, GST-PRE2 or GST-PRE3 in 400 ul 20 mM Tris-HCl pH 8.0, 150 mM NaCl, 0.2% Triton; about 3 h at 4 C; blots with anti-His, anti-MBP, anti-GST. To be noted: both partners purified.
The target in the experiment “His-SUMO-UPB1” is B1. Described as above. To be noted: both partners purified.

For the molecule “UPB1 (UPBEAT1) (from UniProt O22901) UPB1 S37A S41A”, the “binding against the reference” value in the experiment with PRE2 and with PRE3 was “stronger” each time.

Turning to B1, in the experiment with MBP-BIN2, the binding result is given as “binds”. Take B2: the binding result with His-SUMO-UPB1 is listed as “binds”. On to B3, for which the binding result in the experiment with His-SUMO-UPB1 is given as “binds”.
